Reference: patent US20260209362A1 (VIB VZW, published 2026)
Substitutions are numbered along the chain they refer to.

B1: anti-IL-12Rβ2 VHH clone 3CRHS142 (VHH, not shown: small tags and cut ends)
VHH: QVQLQESGGGLVQAGGSLRLSCVSSQTLVGIEAMGWYRQAPGKQRELVALITLNGGTFYADSVKGRFTISRDVAEHMLYLEMNSLNPEDTAVYFCVAGVESDNEEPTYWGQGTQVTVSS
notes: periplasmic extract
B2: anti-IL-12Rβ2 VHH clone 3CRHS156 (VHH, not shown: small tags and cut ends)
VHH: B1 VHH with A14S, T68A
notes: periplasmic extract
B3: anti-IL-12Rβ2 VHH clone 3CRHS166 (VHH, not shown: small tags and cut ends)
VHH: B1 VHH with A14S
notes: periplasmic extract
B4: anti-IL-12Rβ2 VHH clone 3CRHS67 (VHH, not shown: small tags and cut ends)
VHH: B1 VHH with R19T
notes: periplasmic extract
B5: anti-IL-12Rβ2 VHH clone 2CRHS4 (VHH, not shown: small tags and cut ends)
VHH: B1 VHH with A14P, E75G
notes: periplasmic extract
B6: anti-IL-12Rβ2 VHH clone 3CRHS99 (VHH, not shown: small tags and cut ends)
VHH: QVQLQESGGGLVQPGGSLRLSCKASGFTFSTYAMSWVRQAPGKGLEWVSAINSGGLSTDYADSVEGRFTISRDDAKNMLFLQMNSLKAEDTARYYCAKYEDCSDYMCHRDRAGYWGQGTQVTVSS
notes: periplasmic extract
B7: anti-IL-12Rβ2 VHH clone 3CRHS106 (VHH, not shown: small tags and cut ends)
VHH: B6 VHH with I51V, A88P
notes: periplasmic extract
B8: anti-IL-12Rβ2 VHH clone 3CAHS142 (VHH, not shown: small tags and cut ends)
VHH: QVQLQESGGGLVQAGESLTLSCIASGVIKDYAMGWFRQAPGKEREFVAAISWSGVSIYYADSVKGRFTISRDNAKNTVYLQMNSLEPEDTAVYYCAGTEGAYTVAGGSTFGYDMDYWGKGTQVTVSS
notes: periplasmic extract
B9: anti-IL-12Rβ2 VHH clone 3CAHS39 (VHH, not shown: small tags and cut ends)
VHH: QVQLQESGGGLVQAGGSLRLSCAASGRTINAYIMGWFRQAPGKEREFVAAVSGSGGSTYYADSVKGRFTISRDNAKNTVNLQMDNLRSEDTDVYYCAATYESVYLQNPGQYDYWGQGTQVTVSS
notes: periplasmic extract
B10: anti-IL-12Rβ2 VHH clone 3CAHS43 (VHH, not shown: small tags and cut ends)
VHH: B9 VHH with L11S, Q106R
notes: periplasmic extract
B11: anti-IL-12Rβ2 VHH clone 3CAHS53 (VHH, not shown: small tags and cut ends)
VHH: B9 VHH with Q13E, A14P, N74S
notes: periplasmic extract
B12: anti-IL-12Rβ2 VHH clone 3CAHS52 (VHH, not shown: small tags and cut ends)
VHH: B9 VHH with L11S
notes: periplasmic extract
B13: anti-IL-12Rβ2 VHH clone 3CAHS150 (VHH, not shown: small tags and cut ends)
VHH: B9 VHH with L11S, I33V, V51I
notes: periplasmic extract
B14: anti-IL-12Rβ2 VHH clone 3CAHS124 (VHH, not shown: small tags and cut ends)
VHH: B9 VHH with A14P
notes: periplasmic extract
B15: anti-IL-12Rβ2 VHH clone 3CRHS31 (VHH, not shown: small tags and cut ends)
VHH: QVQLQESGGGLVQAGGSLRLSCAASGFTFSTYAMSWVRQAPGKGLEWVSSVNSGGLSTDYADSVEGRFTISRDDAKNMLFLQMNSLKPEDTARYYCAKYEDCSDYVCDRAGYWGQGTQVTVSS
notes: periplasmic extract
B16: anti-IL-12Rβ2 VHH clone 3CRHS51 (VHH, not shown: small tags and cut ends)
VHH: B15 VHH with A14P, S50A, S85R
notes: periplasmic extract
B17: anti-IL-12Rβ2 VHH clone 2CRH41 (VHH, not shown: small tags and cut ends)
VHH: QVQLQESGGGLVQPGGSLRLSCTASGFAFSSYWMYWVRQSPEKGFEWVSVVDTDGGITYYADSVKGRFTISRDNAKNTLYLQMNSLKPQDTALYYCARDRTTLEYTRTYYRTGQGTQVTVSS
notes: periplasmic extract; also called 20365
B18: anti-IL-12Rβ2 VHH clone 3CRHS163 (VHH, not shown: small tags and cut ends)
VHH: B17 VHH with S31T, V37I, D52N, D54G, G56D, Q89E, L103M, E104S, T112G
notes: periplasmic extract
B19: anti-IL-12Rβ2 VHH clone 3CAHS41 (VHH, not shown: small tags and cut ends)
VHH: QVQLQESGGGLVQAGDSLRLSCAASGRTFDTYIVGWFRQAPGKEREFVSALSWSDDTTIRDDSLRGRFTISRDNAKNTVYLLMNSLKPEDTAVYYCAAKAKPPAATWSSYRNREWYDYWGQGTQVTVSS
notes: periplasmic extract
B20: anti-IL-12Rβ2 VHH clone 3CAHS180 (VHH, not shown: small tags and cut ends)
VHH: B19 VHH with I70L
notes: periplasmic extract
B21: anti-IL-12Rβ2 VHH clone 3CAHS79 (VHH, not shown: small tags and cut ends)
VHH: QVQLQESGGGLVQPGGSLRLTCVASGFPFSTHAMSWVRQPPGKGREWISAINSGGDSTDYADSVMGRFTISRDNAKNTVYLQMNSLKSEDTAVYYCAKYEDCSDYDCSSRASWGQGTQVTVSS
notes: periplasmic extract
B22: anti-IL-12Rβ2 VHH clone 3CAHS171 (VHH, not shown: small tags and cut ends)
VHH: B21 VHH with V93A
notes: periplasmic extract
B23: anti-IL-12Rβ2 VHH clone 3CAHS170 (VHH, not shown: small tags and cut ends)
VHH: QVQLQESGGGLVQAGGSLRLSCVASGRTFSSYAMGWFRQGPGKEREFVAAISWSGVSIYYADSVKGRFTISRDNAKNTVYLQMNSLEPEDTAVYYCAGTEGAYTVAGGSTFGYDMDYWGKGTQVTVSS
notes: periplasmic extract
B24: anti-IL-12Rβ2 VHH clone 3CAH48 (VHH, not shown: small tags and cut ends)
VHH: B23 VHH with V23A, I58T, E87R, G98A
notes: periplasmic extract; also called 20360
B25: anti-IL-12Rβ2 VHH clone 2CAH27 (VHH, not shown: small tags and cut ends)
VHH: B23 VHH with L11S, A14S
notes: periplasmic extract
B26: anti-IL-12Rβ2 VHH clone 3CRH38 (VHH, not shown: small tags and cut ends)
VHH: QVQLQESGGGLVQAGGSLVLSCAASGSAALIFLMSWYRQAPGKQRELVAEVSRGGSTTYADSVEGRFTISRDNAKNIVDLQMNSLKPEDTAVYYCKADQNYGDSLRSSWGRGTQVTVSS
notes: periplasmic extract
B27: anti-IL-12Rβ2 VHH clone 3CRH67 (VHH, not shown: small tags and cut ends)
VHH: B26 VHH with G54Y, V92A, N100Y
notes: periplasmic extract
B28: anti-IL-12Rβ2 VHH clone 3CRHS184 (VHH, not shown: small tags and cut ends)
VHH: B26 VHH with G54Y, N100Y, V115L
notes: periplasmic extract
B29: anti-IL-12Rβ2 VHH clone 3CRHS2 (VHH, not shown: small tags and cut ends)
VHH: B26 VHH with A14L, V19T, G54Y, N100Y
notes: periplasmic extract
B30: anti-IL-12Rβ2 VHH clone 3CAH32 (VHH, not shown: small tags and cut ends)
VHH: QVQLQESGGGLVQPGGSLRLSCAASGSILRINLMGWYRQVPGKQRELVAEMSTGGSTTYVDSVKGRFTISRDNAKNTVYLQMNSLKPEDTAVYYCNAKAWQLGRLENDDWGQGTQVTVSS
notes: periplasmic extract; also called 20357
B31: anti-IL-12Rβ2 VHH clone 3CAHS102 (VHH, not shown: small tags and cut ends)
VHH: B30 VHH with K64E
notes: periplasmic extract
B32: anti-IL-12Rβ2 VHH clone 3CRH28 (VHH, not shown: small tags and cut ends)
VHH: QVQLQESGGGLVQPGGSLTLSCAASGFTFSSNAMSWVRQAPGKGLEWVSSISSGGGTTYYTDSVKGRFTTARDNAKNTLYLRMNSLKPEDTAVYYCSKSSTGSGSRGQGTQVTVSS
notes: periplasmic extract
B33: anti-IL-12Rβ2 VHH clone 3CRH25 (VHH, not shown: small tags and cut ends)
VHH: QVQLQESGGGLVQAGDSLRLSCTASGHTFSRYTTIGWFRQAPGKDREFVAAIRWSGDITDYADAVKGRFTISRDNVKNTVYLQMNSLNPEDTAVYYCARGYSEYGVLSRNRGLYAYWGQGTQVTVSS
notes: periplasmic extract
B34: anti-IL-12Rβ2 VHH clone 3CRHS77 (VHH, not shown: small tags and cut ends)
VHH: B33 VHH with D16G, R31S, D45E, R53G, D74H, K77E
notes: periplasmic extract
B35: anti-IL-12Rβ2 VHH clone 3CRH64 (VHH, not shown: small tags and cut ends)
VHH: B33 VHH with D16G, M84T
notes: periplasmic extract
B36: anti-IL-12Rβ2 VHH clone 3CRH59 (VHH, not shown: small tags and cut ends)
VHH: QVQLQESGGGLVQPGGSLRLSCTASGFAFSSYWMYWVRQTPGKGFEWVSVVNPGGEITYYGDSMEDRFTISRDNAKNTLYLQMNSLKPEDTGLYYCARDRTTIDYTRTYYRGGQGTQVTVSS
notes: periplasmic extract

What follows are binders tested against T1, human IL-12Rβ2 (human, UniProt Q99665 24-862) (assay: flow cytometry, P.E. on transfected HEK293T cells).
T1 construct: Expressed on HEK293T cells transiently transfected with a pcDNA3 plasmid (Genscript clone OHu21785); also called hIL-12RB2; IL-12 receptor β2 subunit
T1 sequence: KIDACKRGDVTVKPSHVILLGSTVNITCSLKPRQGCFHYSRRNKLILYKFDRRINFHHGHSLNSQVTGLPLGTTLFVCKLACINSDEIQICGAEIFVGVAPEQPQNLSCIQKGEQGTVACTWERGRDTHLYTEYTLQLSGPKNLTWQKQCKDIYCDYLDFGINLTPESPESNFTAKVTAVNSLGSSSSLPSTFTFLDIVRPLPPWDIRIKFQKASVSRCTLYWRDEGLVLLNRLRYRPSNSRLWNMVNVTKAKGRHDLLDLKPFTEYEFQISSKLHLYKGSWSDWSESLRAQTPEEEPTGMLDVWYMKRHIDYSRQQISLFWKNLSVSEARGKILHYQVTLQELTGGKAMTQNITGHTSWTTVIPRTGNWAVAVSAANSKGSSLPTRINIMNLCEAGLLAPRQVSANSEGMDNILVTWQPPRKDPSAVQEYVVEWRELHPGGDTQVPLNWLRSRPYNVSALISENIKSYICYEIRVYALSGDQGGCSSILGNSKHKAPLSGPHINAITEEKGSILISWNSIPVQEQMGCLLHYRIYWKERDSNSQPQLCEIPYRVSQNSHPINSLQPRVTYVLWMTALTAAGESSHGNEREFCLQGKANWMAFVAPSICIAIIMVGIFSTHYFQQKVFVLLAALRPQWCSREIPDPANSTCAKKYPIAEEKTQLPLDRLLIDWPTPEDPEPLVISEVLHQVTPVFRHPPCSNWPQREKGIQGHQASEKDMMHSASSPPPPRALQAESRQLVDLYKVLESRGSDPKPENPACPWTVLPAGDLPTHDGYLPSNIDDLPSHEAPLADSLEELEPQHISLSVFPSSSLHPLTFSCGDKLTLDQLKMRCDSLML

Binder | % cells bound | dMFI
B1 | 1.02% | 210
B2 | 1.51% | 222
B3 | 2.11% | 266
B4 | 7.11% | 443
B5 | 3.55% | 254
B6 | 42.1% | 980
B7 | 43.3% | 1110
B8 | 40.9% | 912
B9 | 39% | 918
B10 | 47.6% | 1350
B11 | 49.3% | 1460
B12 | 44.3% | 1110
B13 | 47.4% | 1270
B14 | 46.3% | 1200
B15 | 42.8% | 977
B16 | 46% | 1240
B17 | 31.6% | 583
B18 | 43.7% | 1150

Binder | % cells bound | dMFI
B19 | 43.3% | 1070
B20 | 42.6% | 1010
B21 | 46.1% | 1230
B22 | 47.5% | 1280
B23 | 38.3% | 809
B24 | 39.4% | 801
B25 | 36.7% | 668
B26 | 31.8% | 537
B27 | 35.1% | 645
B28 | 33.3% | 625
B29 | 44.5% | 1150
B30 | 40% | 742
B31 | 44.7% | 1090
B32 | 44.6% | 1110
B33 | 34.8% | 620
B34 | 37.7% | 867
B35 | 31% | 645
B36 | 46.1% | 1170
